Literature values in PMC12376249.

Target: Histone H1 (Homo sapiens) (UniProt P07305)
Assay: single-molecule FRET

Chain of UniProt P07305 (P07305 2-194): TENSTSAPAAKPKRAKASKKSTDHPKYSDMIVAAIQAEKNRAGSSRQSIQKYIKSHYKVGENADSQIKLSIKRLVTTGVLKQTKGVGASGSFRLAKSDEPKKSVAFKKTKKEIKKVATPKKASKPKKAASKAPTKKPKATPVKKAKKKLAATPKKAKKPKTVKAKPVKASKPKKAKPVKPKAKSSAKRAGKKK

For Prothymosin alpha (from UniProt P06454), the Kd is listed as 0.05 nM.
